Assay results taken from the supplement of paper PMC9112550, “Optimization of the antimicrobial peptide Bac7 by deep mutational scanning” (BMC Biology, 2022).

Tested on: Escherichia coli TOP10
Assay: shrunken log2 fold change of peptide-encoding DNA abundance (4.5 h post-induction vs induction); higher = less antimicrobial activity (less host growth inhibition)
Settings: time post-induction: 4.5 h; library: site-saturation at positions 5, 18, 19, 20
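Also: peptides expressed intracellularly from a pBAD plasmid library in pooled LB shake-flask culture, induced with 0.3% L-arabinose, DNA abundance read by NGS, three biological replicates, DESeq2 with apeglm shrinkage.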

Sequence	shrunken log2 fold change
RRIRERPPRLPRPRPRPTPPPRP	0.491
RRIRERPPRLPRPRPRPTRCPRP	-0.0341
RRIRERPPRLPRPRPRPTRFPRP	0.169
RRIRERPPRLPRPRPRPTRSPRP	-0.196
RRIRERPPRLPRPRPRPTTTPRP	-0.0224
RRIRERPPRLPRPRPRPTYAPRP	-0.0017
RRIRERPPRLPRPRPRPVCTPRP	-0.147
RRIRERPPRLPRPRPRPVDRPRP	0.0364
RRIRERPPRLPRPRPRPVFWPRP	0.39
RRIRERPPRLPRPRPRPVGTPRP	0.0306
RRIRERPPRLPRPRPRPVHNPRP	-1.53
RRIRERPPRLPRPRPRPVIFPRP	-0.392
RRIRERPPRLPRPRPRPVKAPRP	-0.0316
RRIRERPPRLPRPRPRPVKFPRP	-0.02
RRIRERPPRLPRPRPRPVKWPRP	-0.129
RRIRERPPRLPRPRPRPVLHPRP	-0.0594
RRIRERPPRLPRPRPRPVMVPRP	0.204
RRIRERPPRLPRPRPRPVNLPRP	-0.441
RRIRERPPRLPRPRPRPVPMPRP	-0.041
RRIRERPPRLPRPRPRPVPNPRP	-0.14
RRIRERPPRLPRPRPRPVRAPRP	0.287
RRIRERPPRLPRPRPRPVSMPRP	-0.295
RRIRERPPRLPRPRPRPVTAPRP	-0.00991
RRIRERPPRLPRPRPRPVTMPRP	-0.433
RRIRERPPRLPRPRPRPVVGPRP	-0.106

Sequence	shrunken log2 fold change
RRIRERPPRLPRPRPRPVWTPRP	-0.00115
RRIRERPPRLPRPRPRPWAPPRP	-0.0362
RRIRERPPRLPRPRPRPWCSPRP	-0.177
RRIRERPPRLPRPRPRPWDEPRP	0.0271
RRIRERPPRLPRPRPRPWFFPRP	-0.358
RRIRERPPRLPRPRPRPWFPPRP	-0.206
RRIRERPPRLPRPRPRPWGGPRP	0.267
RRIRERPPRLPRPRPRPWGHPRP	-0.118
RRIRERPPRLPRPRPRPWGPPRP	-0.0024
RRIRERPPRLPRPRPRPWGYPRP	-0.279
RRIRERPPRLPRPRPRPWHTPRP	-0.16
RRIRERPPRLPRPRPRPWIKPRP	-0.924
RRIRERPPRLPRPRPRPWKAPRP	0.0158
RRIRERPPRLPRPRPRPWKGPRP	-0.0443
RRIRERPPRLPRPRPRPWKPPRP	-0.00455
RRIRERPPRLPRPRPRPWLIPRP	-0.397
RRIRERPPRLPRPRPRPWLQPRP	0.0293
RRIRERPPRLPRPRPRPWLTPRP	-0.0528
RRIRERPPRLPRPRPRPWMFPRP	0.0458
RRIRERPPRLPRPRPRPWMKPRP	-0.353
RRIRERPPRLPRPRPRPWPIPRP	-0.679
RRIRERPPRLPRPRPRPWQQPRP	0.015
RRIRERPPRLPRPRPRPWRWPRP	0.0174
RRIRERPPRLPRPRPRPWSAPRP	-0.00234
RRIRERPPRLPRPRPRPWSKPRP	-0.466

Sequence	shrunken log2 fold change
RRIRERPPRLPRPRPRPWSPPRP	-0.0132
RRIRERPPRLPRPRPRPWSRPRP	0.0483
RRIRERPPRLPRPRPRPWTRPRP	-0.0974
RRIRERPPRLPRPRPRPWWFPRP	0.137
RRIRERPPRLPRPRPRPWWWPRP	0.0554
RRIRERPPRLPRPRPRPWYQPRP	-0.219
RRIRERPPRLPRPRPRPWYRPRP	-0.217
RRIRERPPRLPRPRPRPYCMPRP	-1.06
RRIRERPPRLPRPRPRPYDAPRP	0.835
RRIRERPPRLPRPRPRPYDIPRP	-0.136
RRIRERPPRLPRPRPRPYEFPRP	0.00902
RRIRERPPRLPRPRPRPYGCPRP	-0.105
RRIRERPPRLPRPRPRPYHWPRP	-0.0488
RRIRERPPRLPRPRPRPYIFPRP	-0.15
RRIRERPPRLPRPRPRPYKHPRP	-0.684
RRIRERPPRLPRPRPRPYMAPRP	-0.137
RRIRERPPRLPRPRPRPYMRPRP	-0.188
RRIRERPPRLPRPRPRPYNDPRP	0.0352
RRIRERPPRLPRPRPRPYNFPRP	-0.254
RRIRERPPRLPRPRPRPYNGPRP	-0.509
RRIRERPPRLPRPRPRPYNIPRP	-0.184
RRIRERPPRLPRPRPRPYNQPRP	-0.0858
RRIRERPPRLPRPRPRPYPCPRP	-0.00884
RRIRERPPRLPRPRPRPYPGPRP	-0.379
RRIRERPPRLPRPRPRPYPPPRP	-0.942

Sequence	shrunken log2 fold change
RRIRERPPRLPRPRPRPYPYPRP	-0.372
RRIRERPPRLPRPRPRPYQLPRP	-0.0108
RRIRERPPRLPRPRPRPYSGPRP	-0.218
RRIRERPPRLPRPRPRPYTRPRP	-0.252
RRIRERPPRLPRPRPRPYTWPRP	-0.161
RRIRERPPRLPRPRPRPYVWPRP	-0.401
RRIRERPPRLPRPRPRPYWEPRP	-0.219
RRIRERPPRLPRPRPRPYYEPRP	-0.224
RRIRERPPRLPRPRPRPYYKPRP	-0.231
RRIRERPPRLPRPRPRPYYPPRP	-0.14
RRIRFRPPRLPRPRPRPAAEPRP	0.558
RRIRFRPPRLPRPRPRPAEFPRP	1.14
RRIRFRPPRLPRPRPRPAFDPRP	0.128
RRIRFRPPRLPRPRPRPAHNPRP	-0.016
RRIRFRPPRLPRPRPRPAHVPRP	-0.0462
RRIRFRPPRLPRPRPRPAKRPRP	0.21
RRIRFRPPRLPRPRPRPAKSPRP	-0.135
RRIRFRPPRLPRPRPRPALEPRP	0.0373
RRIRFRPPRLPRPRPRPAMNPRP	-0.102
RRIRFRPPRLPRPRPRPAPFPRP	-0.236
RRIRFRPPRLPRPRPRPAQAPRP	0.29
RRIRFRPPRLPRPRPRPAQKPRP	0.166
RRIRFRPPRLPRPRPRPAQSPRP	0.0902
RRIRFRPPRLPRPRPRPATFPRP	-0.207
RRIRFRPPRLPRPRPRPATLPRP	-0.159

Sequence	shrunken log2 fold change
RRIRFRPPRLPRPRPRPATSPRP	0.0918
RRIRFRPPRLPRPRPRPAVNPRP	-0.106
RRIRFRPPRLPRPRPRPAWCPRP	0.205
RRIRFRPPRLPRPRPRPAWNPRP	0.291
RRIRFRPPRLPRPRPRPAYRPRP	-0.0676
RRIRFRPPRLPRPRPRPAYWPRP	0.21
RRIRFRPPRLPRPRPRPCCCPRP	0.0783
RRIRFRPPRLPRPRPRPCEGPRP	-0.086
RRIRFRPPRLPRPRPRPCEKPRP	0.00738
RRIRFRPPRLPRPRPRPCESPRP	0.00749
RRIRFRPPRLPRPRPRPCFLPRP	-0.623
RRIRFRPPRLPRPRPRPCGSPRP	0.06
RRIRFRPPRLPRPRPRPCIHPRP	-0.0499
RRIRFRPPRLPRPRPRPCIYPRP	-0.191
RRIRFRPPRLPRPRPRPCPDPRP	-0.45
RRIRFRPPRLPRPRPRPCQFPRP	-0.227
RRIRFRPPRLPRPRPRPCQTPRP	-0.414
RRIRFRPPRLPRPRPRPCRAPRP	0.0454
RRIRFRPPRLPRPRPRPCRFPRP	-0.607
RRIRFRPPRLPRPRPRPCRPPRP	0.0632
RRIRFRPPRLPRPRPRPCRVPRP	-0.129
RRIRFRPPRLPRPRPRPCSIPRP	0.0647
RRIRFRPPRLPRPRPRPCSLPRP	-0.122
RRIRFRPPRLPRPRPRPCSPPRP	-0.674
RRIRFRPPRLPRPRPRPCTEPRP	-0.431

Sequence	shrunken log2 fold change
RRIRFRPPRLPRPRPRPCTWPRP	-0.0991
RRIRFRPPRLPRPRPRPCWAPRP	0.105
RRIRFRPPRLPRPRPRPCWLPRP	-0.165
RRIRFRPPRLPRPRPRPCYIPRP	-0.158
RRIRFRPPRLPRPRPRPDCDPRP	-0.147
RRIRFRPPRLPRPRPRPDCPPRP	-0.364
RRIRFRPPRLPRPRPRPDDGPRP	-0.0366
RRIRFRPPRLPRPRPRPDDSPRP	-0.154
RRIRFRPPRLPRPRPRPDECPRP	-0.399
RRIRFRPPRLPRPRPRPDEGPRP	0.101
RRIRFRPPRLPRPRPRPDFGPRP	0.0422
RRIRFRPPRLPRPRPRPDFYPRP	-0.105
RRIRFRPPRLPRPRPRPDGLPRP	0.00785
RRIRFRPPRLPRPRPRPDHCPRP	-0.0831
RRIRFRPPRLPRPRPRPDIIPRP	0.0368
RRIRFRPPRLPRPRPRPDISPRP	-0.216
RRIRFRPPRLPRPRPRPDKFPRP	-0.0567
RRIRFRPPRLPRPRPRPDKNPRP	-0.413
RRIRFRPPRLPRPRPRPDMAPRP	-0.108
RRIRFRPPRLPRPRPRPDMNPRP	-0.407
RRIRFRPPRLPRPRPRPDNDPRP	-0.188
RRIRFRPPRLPRPRPRPDNIPRP	-0.269
RRIRFRPPRLPRPRPRPDQGPRP	-0.167
RRIRFRPPRLPRPRPRPDSMPRP	-0.715
RRIRFRPPRLPRPRPRPDTDPRP	0.479
